Four molecules from PMC8878202, “Interdisciplinary Study of the Effects of Dipeptidyl-Peptidase III Cancer Mutations on the KEAP1-NRF2 Signaling Pathway” (International Journal of Molecular Sciences, 2022) can be followed below.

The target of the assay is T1, Kelch domain of KEAP1 protein (UniProt Q14145 321-609, fluorescently labeled with RED-MALEIMIDE (Cysteine reactive) fluorescent dye).
T1 construct: Kelch domain of KEAP1 (Kelch-like ECH associated protein 1); plasmid pET15b with Kelch insert, gift of Mark Hannink; also called Kelch-like ECH associated protein 1 (Kelch domain); source: E. coli BL21-(DE3)-RIL+, purified (Ni-NTA agarose)
T1 sequence (Q14145 321-609): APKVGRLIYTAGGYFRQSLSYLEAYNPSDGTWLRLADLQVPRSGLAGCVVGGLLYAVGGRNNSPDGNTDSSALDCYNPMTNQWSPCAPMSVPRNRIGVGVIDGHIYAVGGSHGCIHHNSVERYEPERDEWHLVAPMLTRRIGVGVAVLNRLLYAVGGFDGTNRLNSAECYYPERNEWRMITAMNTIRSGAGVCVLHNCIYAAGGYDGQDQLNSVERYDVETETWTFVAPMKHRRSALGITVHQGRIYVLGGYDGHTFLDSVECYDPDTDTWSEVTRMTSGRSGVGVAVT
The experiment in a line: MST; Kelch domain labeled with RED-MALEIMIDE, 50 nM; DPP III or variant added; binding-induced fluorescence change on Monolith NT.115; 25 °C; 50 mM Tris, 100 mM NaCl, pH 8.2, 0.05% Tween; triplicate. The note with it: both partners purified.

B1: DPP III R638L variant (enzyme, human, UniProt Q9NY33 1-737, looked up)
chain: MADTQYILPNDIGVSSLDCREAFRLLSPTERLYAYHLSRAAWYGGLAVLLQTSPEAPYIYALLSRLFRAQDPDQLRQHALAEGLTEEEYQAFLVYAAGVYSNMGNYKSFGDTKFVPNLPKEKLERVILGSEAAQQHPEEVRGLWQTCGELMFSLEPRLRHLGLGKEGITTYFSGNCTMEDAKLAQDFLDSQNLSAYNTRLFKEVDGEGKPYYEVRLASVLGSEPSLDSEVTSKLKSYEFRGSPFQVTRGDYAPILQKVVEQLEKAKAYAANSHQGQMLAQYIESFTQGSIEAHKRGSRFWIQDKGPIVESYIGFIESYRDPFGSRGEFEGFVAVVNKAMSAKFERLVASAEQLLKELPWPPTFEKDKFLTPDFTSLDVLTFAGSGIPAGINIPNYDDLRQTEGFKNVSLGNVLAVAYATQREKLTFLEEDDKDLYILWKGPSFDVQVGLHELLGHGSGKLFVQDEKGAFNFDQETVINPETGEQIQSWYRSGETWDSKFSTIASSYEECRAESVGLYLCLHPQVLEIFGFEGADAEDVIYVNWLNMVRAGLLALEFYTPEAFNWRQAHMQARFVILRVLLEAGEGLVTITPTTGSDGRPDARVRLDRSKIRSVGKPALERFLRRLQVLKSTGDVAGGLALYEGYATVTDAPPECFLTLRDTVLLRKESRKLIVQPNTRLEGSDVQLLEYEASAAGLIRSFSERFPEDGPELEEILTQLATADARFWKGPSEAPSGQA
notes: source: E. coli BL21-(DE3)-RIL+, purified (Ni-NTA agarose)
On to B1, for which the “Kd(WT)/Kd(mut)” value was 2.

B2: DPP III R638W variant (enzyme, human, UniProt Q9NY33 1-737, looked up)
chain: MADTQYILPNDIGVSSLDCREAFRLLSPTERLYAYHLSRAAWYGGLAVLLQTSPEAPYIYALLSRLFRAQDPDQLRQHALAEGLTEEEYQAFLVYAAGVYSNMGNYKSFGDTKFVPNLPKEKLERVILGSEAAQQHPEEVRGLWQTCGELMFSLEPRLRHLGLGKEGITTYFSGNCTMEDAKLAQDFLDSQNLSAYNTRLFKEVDGEGKPYYEVRLASVLGSEPSLDSEVTSKLKSYEFRGSPFQVTRGDYAPILQKVVEQLEKAKAYAANSHQGQMLAQYIESFTQGSIEAHKRGSRFWIQDKGPIVESYIGFIESYRDPFGSRGEFEGFVAVVNKAMSAKFERLVASAEQLLKELPWPPTFEKDKFLTPDFTSLDVLTFAGSGIPAGINIPNYDDLRQTEGFKNVSLGNVLAVAYATQREKLTFLEEDDKDLYILWKGPSFDVQVGLHELLGHGSGKLFVQDEKGAFNFDQETVINPETGEQIQSWYRSGETWDSKFSTIASSYEECRAESVGLYLCLHPQVLEIFGFEGADAEDVIYVNWLNMVRAGLLALEFYTPEAFNWRQAHMQARFVILRVLLEAGEGLVTITPTTGSDGRPDARVRLDRSKIRSVGKPALERFLRRLQVLKSTGDVAGGWALYEGYATVTDAPPECFLTLRDTVLLRKESRKLIVQPNTRLEGSDVQLLEYEASAAGLIRSFSERFPEDGPELEEILTQLATADARFWKGPSEAPSGQA
notes: as for B1
As to B2, the “Kd(WT)/Kd(mut)” value is 2.

B3: DPP III R703C variant (enzyme, human, UniProt Q9NY33 1-737, looked up)
chain: MADTQYILPNDIGVSSLDCREAFRLLSPTERLYAYHLSRAAWYGGLAVLLQTSPEAPYIYALLSRLFRAQDPDQLRQHALAEGLTEEEYQAFLVYAAGVYSNMGNYKSFGDTKFVPNLPKEKLERVILGSEAAQQHPEEVRGLWQTCGELMFSLEPRLRHLGLGKEGITTYFSGNCTMEDAKLAQDFLDSQNLSAYNTRLFKEVDGEGKPYYEVRLASVLGSEPSLDSEVTSKLKSYEFRGSPFQVTRGDYAPILQKVVEQLEKAKAYAANSHQGQMLAQYIESFTQGSIEAHKRGSRFWIQDKGPIVESYIGFIESYRDPFGSRGEFEGFVAVVNKAMSAKFERLVASAEQLLKELPWPPTFEKDKFLTPDFTSLDVLTFAGSGIPAGINIPNYDDLRQTEGFKNVSLGNVLAVAYATQREKLTFLEEDDKDLYILWKGPSFDVQVGLHELLGHGSGKLFVQDEKGAFNFDQETVINPETGEQIQSWYRSGETWDSKFSTIASSYEECRAESVGLYLCLHPQVLEIFGFEGADAEDVIYVNWLNMVRAGLLALEFYTPEAFNWRQAHMQARFVILRVLLEAGEGLVTITPTTGSDGRPDARVRLDRSKIRSVGKPALERFLRRLQVLKSTGDVAGGRALYEGYATVTDAPPECFLTLRDTVLLRKESRKLIVQPNTRLEGSDVQLLEYEASAAGLIRSFSECFPEDGPELEEILTQLATADARFWKGPSEAPSGQA
notes: as for B1
Take B3: the “Kd(WT)/Kd(mut)” value worked out at 1.7.

B4: DPP III T481M variant (enzyme, human, UniProt Q9NY33 1-737, looked up)
chain: MADTQYILPNDIGVSSLDCREAFRLLSPTERLYAYHLSRAAWYGGLAVLLQTSPEAPYIYALLSRLFRAQDPDQLRQHALAEGLTEEEYQAFLVYAAGVYSNMGNYKSFGDTKFVPNLPKEKLERVILGSEAAQQHPEEVRGLWQTCGELMFSLEPRLRHLGLGKEGITTYFSGNCTMEDAKLAQDFLDSQNLSAYNTRLFKEVDGEGKPYYEVRLASVLGSEPSLDSEVTSKLKSYEFRGSPFQVTRGDYAPILQKVVEQLEKAKAYAANSHQGQMLAQYIESFTQGSIEAHKRGSRFWIQDKGPIVESYIGFIESYRDPFGSRGEFEGFVAVVNKAMSAKFERLVASAEQLLKELPWPPTFEKDKFLTPDFTSLDVLTFAGSGIPAGINIPNYDDLRQTEGFKNVSLGNVLAVAYATQREKLTFLEEDDKDLYILWKGPSFDVQVGLHELLGHGSGKLFVQDEKGAFNFDQETVINPEMGEQIQSWYRSGETWDSKFSTIASSYEECRAESVGLYLCLHPQVLEIFGFEGADAEDVIYVNWLNMVRAGLLALEFYTPEAFNWRQAHMQARFVILRVLLEAGEGLVTITPTTGSDGRPDARVRLDRSKIRSVGKPALERFLRRLQVLKSTGDVAGGRALYEGYATVTDAPPECFLTLRDTVLLRKESRKLIVQPNTRLEGSDVQLLEYEASAAGLIRSFSERFPEDGPELEEILTQLATADARFWKGPSEAPSGQA
notes: as for B1
Consider B4, for which the “Kd(WT)/Kd(mut)” value is 0.1.
